In PMC9005958 one finds binding data, which are given here for 1 sequence.

This data set concerns T1, GST-rCtrA (Ehrlichia chaffeensis), ORF:1c7d897d.
T1 sequence: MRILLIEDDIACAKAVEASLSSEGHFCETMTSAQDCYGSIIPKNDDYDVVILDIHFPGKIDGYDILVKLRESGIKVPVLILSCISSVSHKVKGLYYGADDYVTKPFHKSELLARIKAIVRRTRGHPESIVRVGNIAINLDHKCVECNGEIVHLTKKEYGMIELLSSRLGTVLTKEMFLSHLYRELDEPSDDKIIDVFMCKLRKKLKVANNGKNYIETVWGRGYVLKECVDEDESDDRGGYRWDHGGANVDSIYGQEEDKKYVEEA
In words: EMSA.

In the case of “ATATAACCTAATAGTGACAAATAAATTAACAATAGTAGAAGTGTCATATAAAAGCAAGTCAGAATATAAATTTTTGTATAAAATATCGGTAACTTTTGTAAGGAAAATTTAATATATTACGTCAGGTAAGTAATAGCAAAAAAACTGGTTAAGTATAGTATCATGTGTAAAGGTGAGAAAAACAGCACTTATAAACTAGTCCCCCCCCCCCCCCTCTTATTGCTACATTCTTTTGCCACTATTTTTATTTACCTGCAGCA (double strand) [p28 promoter]”, the binding result is reported as “no binding”.
